Measured values: patent US20030177513A1

Molecular target: thrombin
Assay: cell-based or functional assay

ATIII activity by thrombin inhibition (two-stage colorimetric endpoint assay), milk at day 5: 20.5 U/ml
ATIII activity by thrombin inhibition (two-stage colorimetric endpoint assay), milk at day 9: 14.6 U/ml
Substance: recombinant human Antithrombin III (ATIII) in the milk of the cloned transgenic goat CFF6-1 (from UniProt P01008 33-464)
